In the supplement of paper PMC10567573:

B1: ZER1 (parent)
chain: KEMARKVIEHCSNFKEENMDTSR
B2: FAM107A (parent)
chain: LQRVLEHRRRNQLIKKKKEELEAK

Variants of: B1
Assay: protein stability index of a GFP-peptide fusion (GPS, HEK-293T) (PSI 1-6); higher = more stable
Settings: c terminus: native
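Also: lentivirally expressed fusions sorted by FACS into six bins by GFP to DsRed ratio, PSI derived from sequencing read proportions per bin multiplied by bin number.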

Variant | protein stability index
KEMARKVIEHLSNFKEENMDTSR | 2.59
KEMARKVIEHMSNFKEENMDTSR | 2.58
KEMARQVIEHCSNFKEENMDTSR | 3.73
KEMARMVIEHCSNFKEENMDTSR | 2.14
KEMARKVIEHCSMFKEENMDTSR | 2.88
KEMARKVIEHCSTFKEENMDTSR | 3.68
KEMARKVIEHCSYFKEENMDTSR | 3.15
KEMAMKVIEHCSNFKEENMDTSR | 3.13
KEMARKVIEHCYNFKEENMDTSR | 2.73
KEMARKVIEHCINFKEENMDTSR | 2.56
KFMARKVIEHCSNFKEENMDTSR | 2.11
KEMARKVIEHCSNFKEENMDTWR | 2.97
KEMARKVIEHCSNFKEENMFTSR | 2.98
KEMARKVIEHCSNFKEENMYTSR | 2.89
KEDARKVIEHCSNFKEENMDTSR | 4.86
KENARKVIEHCSNFKEENMDTSR | 4.14
KEMARKVIEHCSNFKEENMDKSR | 1.68
KEMARKVIEHCSNFKEEVMDTSR | 3.46
KEMARKVTEHCSNFKEENMDTSR | 4.4
KEMHRKVIEHCSNFKEENMDTSR | 4.02
KEMYRKVIEHCSNFKEENMDTSR | 2.89
KEMARKVIEHCSNFKEENADTSR | 3.68
KEMARKVILHCSNFKEENMDTSR | 2.64
KEMARKVIIHCSNFKEENMDTSR | 3.03
KEMARKEIEHCSNFKEENMDTSR | 5.27
KEMARKVIEHCSNFKFENMDTSR | 2.46
KEMARKVIEHCSNFKQENMDTSR | 3.14

Variants of: B2
Assay: as above
Settings: c terminus: a fixed tail appended

Variant | protein stability index
LQRLLEHRRRNQLIKKKKEELEAK | 2.87
LQRRLEHRRRNQLIKKKKEELEAK | 4.14
LQRGLEHRRRNQLIKKKKEELEAK | 3.52
LQRFLEHRRRNQLIKKKKEELEAK | 2.05
LQRNLEHRRRNQLIKKKKEELEAK | 4.87
LQRKLEHRRRNQLIKKKKEELEAK | 4.39
LQRMLEHRRRNQLIKKKKEELEAK | 3.1
LQRTLEHRRRNQLIKKKKEELEAK | 3.92
LQRSLEHRRRNQLIKKKKEELEAK | 3.69
LQRQLEHRRRNQLIKKKKEELEAK | 4.61
LQRHLEHRRRNQLIKKKKEELEAK | 3.68
LQRWLEHRRRNQLIKKKKEELEAK | 2.09
LQRELEHRRRNQLIKKKKEELEAK | 4.49
LQRALEHRRRNQLIKKKKEELEAK | 4.09
LQRPLEHRRRNQLIKKKKEELEAK | 4.66
LQRVLEHRRMNQLIKKKKEELEAK | 2.85
LQRVLEHRRANQLIKKKKEELEAK | 4.01
LQRVLEHRRKNQLIKKKKEELEAK | 3.29
LQRVLEHRRHNQLIKKKKEELEAK | 3.2
LQRVLEHRRTNQLIKKKKEELEAK | 4.57
LQRVLEHRRVNQLIKKKKEELEAK | 3.95
LQRVLEHRRYNQLIKKKKEELEAK | 4.04
LQRVLEHRRENQLIKKKKEELEAK | 3.75
LQRVLEHRRCNQLIKKKKEELEAK | 3.14

Variant | protein stability index
LQRVLEHRRWNQLIKKKKEELEAK | 3.94
LQRVLEHRRDNQLIKKKKEELEAK | 4.77
LQRVLEHRRPNQLIKKKKEELEAK | 4.23
LQRVLEHRRINQLIKKKKEELEAK | 3.3
LQRVLEHRRNNQLIKKKKEELEAK | 3.55
LQRVLEHRRSNQLIKKKKEELEAK | 3.95
LQRVLEHRRFNQLIKKKKEELEAK | 3.21
LQRVLEHRRLNQLIKKKKEELEAK | 3.66
LQRVLEHRRGNQLIKKKKEELEAK | 4.15
QQRVLEHRRRNQLIKKKKEELEAK | 5.11
MQRVLEHRRRNQLIKKKKEELEAK | 3.64
PQRVLEHRRRNQLIKKKKEELEAK | 4.66
EQRVLEHRRRNQLIKKKKEELEAK | 4.79
TQRVLEHRRRNQLIKKKKEELEAK | 4.72
KQRVLEHRRRNQLIKKKKEELEAK | 4.85
GQRVLEHRRRNQLIKKKKEELEAK | 4.37
DQRVLEHRRRNQLIKKKKEELEAK | 5.36
FQRVLEHRRRNQLIKKKKEELEAK | 3.13
YQRVLEHRRRNQLIKKKKEELEAK | 3.02
IQRVLEHRRRNQLIKKKKEELEAK | 2.73
AQRVLEHRRRNQLIKKKKEELEAK | 4.61
WQRVLEHRRRNQLIKKKKEELEAK | 2.56
LQRVLEHRRRCQLIKKKKEELEAK | 2.83
LQRVLEHRRRDQLIKKKKEELEAK | 3.56

Variant | protein stability index
LQRVLEHRRRAQLIKKKKEELEAK | 2.24
LQRVLEHMRRNQLIKKKKEELEAK | 3.38
LQRVLEHERRNQLIKKKKEELEAK | 4.32
LQRVLEHDRRNQLIKKKKEELEAK | 4.61
LQRVLEHKRRNQLIKKKKEELEAK | 3.82
LQRVLEHGRRNQLIKKKKEELEAK | 3.39
LQRVLEHFRRNQLIKKKKEELEAK | 2.1
LQRVLEHIRRNQLIKKKKEELEAK | 2.42
LQRVLEHVRRNQLIKKKKEELEAK | 3.05
LQRVLEHLRRNQLIKKKKEELEAK | 2.15
LQRVLEHWRRNQLIKKKKEELEAK | 1.68
LQRVLEHQRRNQLIKKKKEELEAK | 3.38
LQRVLEHPRRNQLIKKKKEELEAK | 3.45
LQRVLEHTRRNQLIKKKKEELEAK | 3.87
LQRVLEHARRNQLIKKKKEELEAK | 3.43
LQRVLEHHRRNQLIKKKKEELEAK | 2.89
LQRVLEHNRRNQLIKKKKEELEAK | 3.53
LQRVFEHRRRNQLIKKKKEELEAK | 3.77
LQRVREHRRRNQLIKKKKEELEAK | 4.04
LQRVYEHRRRNQLIKKKKEELEAK | 2.98
LQRVNEHRRRNQLIKKKKEELEAK | 4.27
LQRVWEHRRRNQLIKKKKEELEAK | 3.71
LQRVTEHRRRNQLIKKKKEELEAK | 4.38
LQRVSEHRRRNQLIKKKKEELEAK | 4.46

Variant | protein stability index
LQRVGEHRRRNQLIKKKKEELEAK | 4.73
LQRVMEHRRRNQLIKKKKEELEAK | 4.19
LQRVPEHRRRNQLIKKKKEELEAK | 4.69
LQRVEEHRRRNQLIKKKKEELEAK | 4.38
LQRVAEHRRRNQLIKKKKEELEAK | 4.08
LQRVHEHRRRNQLIKKKKEELEAK | 5.17
LQRVIEHRRRNQLIKKKKEELEAK | 3.2
LQRVQEHRRRNQLIKKKKEELEAK | 3.94
LQRVCEHRRRNQLIKKKKEELEAK | 3.69
LQRVLDHRRRNQLIKKKKEELEAK | 3.61
LQRVLWHRRRNQLIKKKKEELEAK | 3.02
LQRVLVHRRRNQLIKKKKEELEAK | 3.68
LQRVLRHRRRNQLIKKKKEELEAK | 3.81
LQRVLCHRRRNQLIKKKKEELEAK | 3.12
LQRVLSHRRRNQLIKKKKEELEAK | 4.13
LQRVLYHRRRNQLIKKKKEELEAK | 3
LQRVLLHRRRNQLIKKKKEELEAK | 2.79
LQRVLIHRRRNQLIKKKKEELEAK | 2.73
LQRVLHHRRRNQLIKKKKEELEAK | 3.81
LQRVLGHRRRNQLIKKKKEELEAK | 3.98
LQRVLFHRRRNQLIKKKKEELEAK | 3.63
LQRVLMHRRRNQLIKKKKEELEAK | 3.32
LQRVLAHRRRNQLIKKKKEELEAK | 3.07
LQRVLTHRRRNQLIKKKKEELEAK | 3.02

Variant | protein stability index
LQRVLKHRRRNQLIKKKKEELEAK | 4.04
LQRVLPHRRRNQLIKKKKEELEAK | 3.96
LQRVLEFRRRNQLIKKKKEELEAK | 3.1
LQRVLEDRRRNQLIKKKKEELEAK | 4.04
LQRVLEGRRRNQLIKKKKEELEAK | 4.29
LQRVLELRRRNQLIKKKKEELEAK | 3.34
LQRVLEIRRRNQLIKKKKEELEAK | 3.06
LQRVLEARRRNQLIKKKKEELEAK | 3.67
LQRVLEMRRRNQLIKKKKEELEAK | 3.15
LQRVLEYRRRNQLIKKKKEELEAK | 1.69
LQRVLERRRRNQLIKKKKEELEAK | 3.19
LQRVLEERRRNQLIKKKKEELEAK | 3.9
LQRVLEPRRRNQLIKKKKEELEAK | 3.4
LQRVLEKRRRNQLIKKKKEELEAK | 1.82
LQRVLENRRRNQLIKKKKEELEAK | 3.67
LQRVLEQRRRNQLIKKKKEELEAK | 3.75
LQRVLECRRRNQLIKKKKEELEAK | 3.37
LQWVLEHRRRNQLIKKKKEELEAK | 2.27
LQNVLEHRRRNQLIKKKKEELEAK | 3.79
LQFVLEHRRRNQLIKKKKEELEAK | 3.04
LQEVLEHRRRNQLIKKKKEELEAK | 5.32
LQAVLEHRRRNQLIKKKKEELEAK | 3.21
LQLVLEHRRRNQLIKKKKEELEAK | 2.39
LQHVLEHRRRNQLIKKKKEELEAK | 4.12

Variant | protein stability index
LQQVLEHRRRNQLIKKKKEELEAK | 3.92
LQIVLEHRRRNQLIKKKKEELEAK | 2.09
LQVVLEHRRRNQLIKKKKEELEAK | 3.6
LQSVLEHRRRNQLIKKKKEELEAK | 4.04
LQCVLEHRRRNQLIKKKKEELEAK | 3.13
LQTVLEHRRRNQLIKKKKEELEAK | 3.8
LQDVLEHRRRNQLIKKKKEELEAK | 4.5
LQKVLEHRRRNQLIKKKKEELEAK | 3.69
LQYVLEHRRRNQLIKKKKEELEAK | 3.39
LGRVLEHRRRNQLIKKKKEELEAK | 4.38
LDRVLEHRRRNQLIKKKKEELEAK | 3.25
LTRVLEHRRRNQLIKKKKEELEAK | 4.02
LERVLEHRRRNQLIKKKKEELEAK | 3.89
LCRVLEHRRRNQLIKKKKEELEAK | 2.98
LWRVLEHRRRNQLIKKKKEELEAK | 2.06
LARVLEHRRRNQLIKKKKEELEAK | 2.93
LFRVLEHRRRNQLIKKKKEELEAK | 2.16
LYRVLEHRRRNQLIKKKKEELEAK | 2.13
LIRVLEHRRRNQLIKKKKEELEAK | 1.8
LKRVLEHRRRNQLIKKKKEELEAK | 4.01
LVRVLEHRRRNQLIKKKKEELEAK | 2.41
LRRVLEHRRRNQLIKKKKEELEAK | 3.67
LMRVLEHRRRNQLIKKKKEELEAK | 2.78
LPRVLEHRRRNQLIKKKKEELEAK | 3.98

Variant | protein stability index
LNRVLEHRRRNQLIKKKKEELEAK | 4.13
LLRVLEHRRRNQLIKKKKEELEAK | 1.81
LQRVLEHRFRNQLIKKKKEELEAK | 2.49
LQRVLEHRSRNQLIKKKKEELEAK | 4.03
LQRVLEHRPRNQLIKKKKEELEAK | 3.81
LQRVLEHRKRNQLIKKKKEELEAK | 3.76
LQRVLEHRHRNQLIKKKKEELEAK | 3.65
LQRVLEHRDRNQLIKKKKEELEAK | 3.96
LQRVLEHRYRNQLIKKKKEELEAK | 1.84
LQRVLEHRLRNQLIKKKKEELEAK | 1.72
LQRVLEHRARNQLIKKKKEELEAK | 4.4
LQRVLEHRMRNQLIKKKKEELEAK | 2.77
LQRVLEHRVRNQLIKKKKEELEAK | 2.16
LQRVLEHRGRNQLIKKKKEELEAK | 4.14
LQRVLEHRCRNQLIKKKKEELEAK | 3.23
LQRVLEHRIRNQLIKKKKEELEAK | 2.72
LQRVLEHRTRNQLIKKKKEELEAK | 4.07
LQRVLEHRERNQLIKKKKEELEAK | 3.97
